Test system: Antioxidant Response Element (ARE) Luciferase HepG2 Reporter cells
Procedure: Cells were plated at a seeding density of 25k cells/well into 96 well plates in cell growth media and allowed to incubate for 24 hours. […] After 24 hours, 10 μL of MTS reagent was added to each well, and the cells incubated for four hours at 37° C. Absorbance was measured at 490 nm using a Perkin Elmer EnSpire plate reader every hour after MTS addition. Viability was assessed after background subtraction from cell free control wells and calculated as relative viability based on the average of control wells. Viability is reported as a percentage of control groups and prepared for presentation using Prism9.
The reporter and cell viability assays were performed over a concentration range of 0 μM to 10 μM for each of the polymers described.
Cells were plated at a seeding density of 25k cells/well into 96 well plates in cell growth media and allowed to incubate for 24 hours. […] Luminescence was assessed using the Biotek SynergyNeo2 plate reader at the High Throughput Analysis Core at Northwestern University. Background luminescence of cell free controls wells was subtracted from test wells. […] Absorbance was measured at 490 nm using a Perkin Elmer EnSpire plate reader every hour after MTS addition. Viability was assessed after background subtraction from cell free control wells and calculated as relative viability based on the average of control wells. […]

DLG Homopolymer (RQDIDLGVSRR) was tested. Which “tolerability (MTS assay)” value did it give?
Its value is “well tolerated”.
